The test addresses T1, murine IGF-1R (Mus musculus, UniProt Q60751).
T1 construct: evaluated against human and murine IGF-1R-ECD
In words: BIACORE surface-plasmon resonance, murine IGF-1R. Type of test: binding. As to the method: Before HVR grafting, murine 2B4, 9F2, and 10H5Fab binding affinities were evaluated against human and murine IGF-1R-ECD using BIACORE™ instrument analysis. The procedure used was that for BIACORE™ instrument analyses generally, wherein the analyte was anti-IGF-1R Fab (500 nM-[…]; two-fold serial dilution), the ligand was IGF-1R (about 500 RU)-coated CM5 sensor chip, and the temperature was 25° C.
Binding affinities of selected antibodies to IGF-1R were determined by surface plasmon resonance measurements on a BIACORE™ 3000 instrument (BIAcore, Inc.). Human, murine, or cynomolgus-monkey IGF-1R was immobilized at a density of about 500 RU on the flow cells of a PIONEER™ CM5 sensor chip. Immobilization was achieved by random coupling through amino groups using a protocol provided by the manufacturer. Sensorgrams were recorded for binding of anti-IGF-1R Fab or IgG to these surfaces by injection of a series of solutions ranging from 500 nM to 3.1 nM and 250 nM to 0.78 nM in two-fold increments, respectively. The signal from the reference cell was subtracted from the observed sensorgram. Kinetic constants were calculated by non-linear regression analysis of the data according to a 1:1 Languir binding model using software supplied by the manufacturer.
(Surface plasmon resonance follows binding to a sensor surface in real time, without labels.)

T1 sequence (Q60751 31-737 limits assumed): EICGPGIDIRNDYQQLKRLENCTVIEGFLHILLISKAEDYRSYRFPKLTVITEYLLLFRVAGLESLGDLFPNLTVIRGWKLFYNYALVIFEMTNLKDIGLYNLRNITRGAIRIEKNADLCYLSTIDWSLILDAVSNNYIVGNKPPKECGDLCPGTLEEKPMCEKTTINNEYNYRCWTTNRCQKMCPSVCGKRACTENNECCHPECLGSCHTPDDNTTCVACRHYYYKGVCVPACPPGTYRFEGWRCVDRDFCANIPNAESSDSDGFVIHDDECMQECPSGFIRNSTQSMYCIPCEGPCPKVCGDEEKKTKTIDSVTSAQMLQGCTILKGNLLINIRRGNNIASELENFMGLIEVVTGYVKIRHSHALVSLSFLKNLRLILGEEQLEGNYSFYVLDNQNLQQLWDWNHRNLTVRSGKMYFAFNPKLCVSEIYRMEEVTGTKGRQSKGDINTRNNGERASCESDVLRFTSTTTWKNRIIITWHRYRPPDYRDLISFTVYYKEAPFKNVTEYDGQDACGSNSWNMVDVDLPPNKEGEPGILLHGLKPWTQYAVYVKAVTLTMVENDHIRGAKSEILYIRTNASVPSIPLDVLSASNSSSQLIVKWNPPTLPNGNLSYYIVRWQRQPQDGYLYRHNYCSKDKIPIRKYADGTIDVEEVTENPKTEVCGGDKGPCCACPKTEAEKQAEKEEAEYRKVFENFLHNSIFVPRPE
T1 sequence (Q60751 742-936 limits assumed): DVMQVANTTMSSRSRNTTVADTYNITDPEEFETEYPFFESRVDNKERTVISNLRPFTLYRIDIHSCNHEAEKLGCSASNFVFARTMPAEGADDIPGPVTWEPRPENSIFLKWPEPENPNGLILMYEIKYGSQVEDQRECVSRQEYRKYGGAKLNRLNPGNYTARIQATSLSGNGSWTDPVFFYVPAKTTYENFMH

B1: 9F2: mouse monoclonal anti-IGF-1R antibody from hybridoma 9F2.6.2, ATCC PTA-7018 (antibody, V domains shown)
VH: QIQLVQSGPELKKPGETVKISCKASGYTLANYGMNWVKQAPGKGFKWMGWINTNTGKPTYSDEFKGRFVFSLETSASTAYLLINNLSNEDTATYFCARSIYYYGSRYFNVWGAGTT
VL: DIQMTQSTSSLSASLGDRVTISCRASQDINNYLTWYQQKPDGTVKLLIYYTSRLHSGVPSRFSGSGSGTDYSLTITNLEQEDFATYFCQQGNTLPWTFGEGTKVEIKR
On to B1, for which the “binding to mouse IGF-1R” value is reported as “not to mouse IGF-1R or human insulin receptor”.

B2: 10H5: mouse monoclonal anti-IGF-1R antibody from hybridoma 10H5.3.4, ATCC PTA-7007 (antibody, V domains shown)
VH: QVQLQQPGAELVKPGASVTLSCKASGYTFTRFWIHWVKQRPGQGLEWIGEINPSNGRTNYNENFKNKATLTVDTSSSTAYMQLSSLTSEVSVVYYCARGGRLDQWGQGTT
VL: DIVMTQSQKFMSTSLGDRVSVTCKASQNVGSNVAWYQQKPGQSPEALIYSASYRYSGVPDRFTGSGSGTDFTLTISNVQSEDLAEYFCHQYNNYPYTFGGGTKVEIKR
As for B2, the “binding to mouse IGF-1R” value was “not to mouse IGF-1R or human insulin receptor”.

The values above are taken from patent publication US20090068110A1, “ANTIBODIES TO INSULIN-LIKE GROWTH FACTOR RECEPTOR” (Genentech, Inc., priority 2006, published 2009).
